Assay results: patent US20140161803A1 (IFOM Fondazione Istituo FIRC di Oncologia Molecolare, priority 2011, published 2014)

System: PC-3 cells
Assay: PC3 prostate cancer xenograft tumor growth
Type: in vivo, Balb C nu/nu mice
Conditions: 10.0 mg/kg i.p. bi-weekly; s.c. PC-3 xenograft; versus control animals
Procedure: Male Balb C nu/nu mice were inoculated with (1×10^6) PC-3 cells through the subcutaneous (s.c.) route. […] Tumors were measured twice weekly, and tumor volume was determined as described in Materials and Methods.
Six-week-old male Balb C nu/nu mice were obtained from Charles River. Before inoculation, PC-3 cells growing in serum-containing medium were washed with phosphate buffered saline (PBS), harvested by trypsinization, and pelleted at 1200 rpm for 7 minutes. Cells (1.0×10^6) were resuspended in 200 μl of PBS with 20% Matrigel. Animals were anesthetized by intraperitoneal (i.p.) injection of Avertin and 1.0×10^6 cells were inoculated subcutaneously (s.c.) using a 26-gauge needle into the right flank of anesthetized mice. […] The animals were monitored twice a week for 7 weeks for tumor development and growth. Tumor volume was determined according to the formula: tumor volume=shorter diameter^2×longer diameter/2. […] Results were analyzed as the mean±SE, and comparisons of the experimental data were analyzed by unpaired, two-tailed, equal variance, t-test.
In this model, one million PC3 cells were inoculated in the right flank of male Balb C nu/nu mice through subcutaneous route.

B1: 13F6: non-inhibitory monoclonal anti-uPAR antibody raised against GFDuPAR-hFc; IgG1 κ (antibody, V domains shown)
VH: ELVKPGASVELSCKASGYTFTSYWMNWVKQRPGRGLEWIGRIAPNSGGTQYSGKFKTKATLTVDKSSSTAYMQLSSLTSEDSAVYYCARGDYFGHFDYWGQGTTLTVS
VL: SLSASLGGKVTITCKASQDINNYIAWYQHKPGKGPRLLIHYTSILQPGIPSRFSGSGSGRDYSFSISNLEPEDIATYYCLQCDNLLTFGAGTKLELK
Q: B1 was tested. Which “effect on tumor volume” value did it give?
A: The value was “A similar inhibition was not observed”.
